Results from IntAct's records for PubMed 16885985.

B1: Merlin (Homo sapiens), P35240 (parent)
chain: MAGAIASRMSFSSLKRKQPKTFTVRIVTMDAEMEFNCEMKWKGKDLFDLVCRTLGLRETWFFGLQYTIKDTVAWLKMDKKVLDHDVSKEEPVTFHFLAKFYPENAEEELVQEITQHLFFLQVKKQILDEKIYCPPEASVLLASYAVQAKYGDYDPSVHKRGFLAQEELLPKRVINLYQMTPEMWEERITAWYAEHRGRARDEAEMEYLKIAQDLEMYGVNYFAIRNKKGTELLLGVDALGLHIYDPENRLTPKISFPWNEIRNISYSDKEFTIKPLDKKIDVFKFNSSKLRVNKLILQLCIGNHDLFMRRRKADSLEVQQMKAQAREEKARKQMERQRLAREKQMREEAERTRDELERRLLQMKEEATMANEALMRSEETADLLAEKAQITEEEAKLLAQKAAEAEQEMQRIKATAIRTEEEKRLMEQKVLEAEVLALKMAEESERRAKEADQLKQDLQEAREAERRAKQKLLEIATKPTYPPMNPIPAPLPPDIPSFNLIGDSLSFDFKDTDMKRLSMEIEKEKVEYMEKSKHLQEQLNELKTEIEALKLKERETALDILHNENSDRGGSSKHNTIKKLTLQSAKSRVAFFEEL
partner: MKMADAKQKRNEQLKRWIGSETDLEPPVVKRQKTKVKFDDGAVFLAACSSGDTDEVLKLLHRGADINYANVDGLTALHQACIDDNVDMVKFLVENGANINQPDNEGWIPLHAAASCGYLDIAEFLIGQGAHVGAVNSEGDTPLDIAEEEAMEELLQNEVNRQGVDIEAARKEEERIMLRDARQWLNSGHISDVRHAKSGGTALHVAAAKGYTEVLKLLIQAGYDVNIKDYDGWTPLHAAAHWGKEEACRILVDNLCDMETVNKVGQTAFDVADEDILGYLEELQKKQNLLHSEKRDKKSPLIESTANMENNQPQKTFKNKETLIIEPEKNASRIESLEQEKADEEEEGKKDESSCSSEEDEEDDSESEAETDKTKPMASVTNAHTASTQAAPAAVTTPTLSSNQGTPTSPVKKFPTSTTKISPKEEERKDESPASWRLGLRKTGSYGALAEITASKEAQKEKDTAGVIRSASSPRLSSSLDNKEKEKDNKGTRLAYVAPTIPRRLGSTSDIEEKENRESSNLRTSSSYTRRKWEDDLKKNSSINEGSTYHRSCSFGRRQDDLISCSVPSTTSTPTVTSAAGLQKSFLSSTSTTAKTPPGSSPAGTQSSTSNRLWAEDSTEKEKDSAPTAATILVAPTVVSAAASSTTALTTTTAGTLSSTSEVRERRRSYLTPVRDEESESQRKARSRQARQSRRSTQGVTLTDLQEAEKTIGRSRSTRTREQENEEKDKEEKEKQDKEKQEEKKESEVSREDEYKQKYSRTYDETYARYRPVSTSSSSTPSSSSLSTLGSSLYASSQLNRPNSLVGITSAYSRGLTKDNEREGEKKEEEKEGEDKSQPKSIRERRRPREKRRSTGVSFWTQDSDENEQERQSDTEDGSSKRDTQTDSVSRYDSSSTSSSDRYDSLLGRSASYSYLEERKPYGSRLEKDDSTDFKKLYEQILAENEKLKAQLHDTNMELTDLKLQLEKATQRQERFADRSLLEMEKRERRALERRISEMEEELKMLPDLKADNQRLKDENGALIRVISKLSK

Variants of: B1
Conditions: with mypt1_rat Ppp1r12a

Row | effect of a mutation on the interaction | Variant
1 | decreasing interaction | MAGAIASRMSFSSLKRKQPKTFTVRIVTMDAEMEFNCEMKWKGKDLFDLVCRTLGLRETWFFGLQYTIKDTVAWLKMDKKVLDHDVSKEEPVTFHFLAKFYPENAEEELVQEITQHLFFLQVKKQILDEKIYCPPEASVLLASYAVQAKYGDYDPSVHKRGFLAQEELLPKRVINLYQMTPEMWEERITAWYAEHRGRARDEAEMEYLKIAQDLEMYGVNYFAIRNKKGTELLLGVDALGLHIYDPENRLTPKISFPWNEIRNISYSDKEFTIKPLDKKIDVFKFNSSKLRVNKLILQLCIGNHDLFMRRRKADSLEVQQMKAQAREEKARKQMERQRLAREKQMREEAERTRDELERRLLQMKEEATMANEALMRSEETADLLAEKAQITEEEAKLLAQKAAEAEQEMQRIKATAIRTEEEKRLMEQKVLEAEVLALKMAEESERRAKEADQLKQDLQEAREAERRAKQKLLEIATKPTYPPMNPIPAPLPPDIPSFNLIGDSLSFDFKDTDMKRLAMEIEKEKVEYMEKSKHLQEQLNELKTEIEALKLKERETALDILHNENSDRGGSSKHNTIKKLTLQSAKSRVAFFEEL [S518A]
